From paper PMC7352323, “Regulation of Actin Filament Length by Muscle Isoforms of Tropomyosin and Cofilin” (International Journal of Molecular Sciences, 2020) come the findings set out here.

Conditions in all cases: both partners purified
For test [1], the target named is T1, F-actin (actin isolated from rabbit pectoral muscle, polymerised) (rabbit, UniProt P68135 1-377). Description: co-sedimentation; 0-10 µM cofilin-2 with 3 µM F-actin alone or initially saturated with 1 µM Tpm1.1 or Tpm3.12, 20 min at room temperature; 100 mM NaCl, 2 mM MgCl2, 1 mM DTT, pH 7.5; apparent Kapp from the Hill equation, K0 and ω from the McGhee and von Hippel linear lattice model.

Test [2] deals with T2, F-actin initially saturated with Tpm1.1 (rabbit | human, UniProt P68135 1-377; P09493 1-284). Described as above.
Test [3] has as its target T3, F-actin initially saturated with Tpm3.12 (rabbit | human, UniProt P68135 1-377; P06753 1-285). Described as above.
The target in test [4] is T1, F-actin (actin isolated from rabbit …). Described as above. This is another data set of the same source.
The target in test [5] is T2, F-actin initially saturated with Tpm1.1. The test is described as above. This is another data set of the same source.
The target of test [6] is T3, F-actin initially saturated with Tpm3.12. Described as above. The source holds these as a separate data set.
Test [7] deals with T1, F-actin (actin isolated from rabbit …). Description: co-sedimentation; dissociation of tropomyosin from the filament by cofilin-2: 3 µM F-actin, 1 µM Tpm1.1 or Tpm3.12, 0-10 µM cofilin-2; tropomyosin/actin densitometric ratio against cofilin-2/actin molar ratio, fit to a modified Hill equation; same gels as for cofilin-2 binding in the presence of tropomyosin.

B1: mouse cofilin-2, recombinant, GST tag removed (natural protein)
chain: MASGVTVNDEVIKVFNDMKVRKSSTQEEIKKRKKAVLFCLSDDKRQIIVEEAKQILVGDIGDTVEDPYTSFVKLLPLNDCRYALYDATYETKESKKEDLVFIFWAPESAPLKSKMIYASSKDAIKKKFTGIKHEWQVNGLDDIKDRSTLGEKLGGSVVVSLEGKPL
notes: cofilin-2 (muscle isoform of cofilin), mouse cDNA; MW 18,500 Da printed; The printed MW of 18,500 Da fits the whole protein
Regarding B1, the “stoichiometry N” value in test [1], in test [2] and in test [3] was approximately 1 cofilin-2 per actin in each case. Further, the “K0 (affinity for an isolated binding site, linear lattice model)” value in test [4] is 0.01 µM⁻¹; in test [5] it was 0.17 µM⁻¹; in test [6], 0.21 µM⁻¹. The Ka in test [4] was 5.7e+06 M⁻¹; in test [5] it was 6.3e+06 M⁻¹; in test [6] it was 5.8e+06 M⁻¹. For the same molecule, the results for the “ω (cooperativity coefficient, linear lattice model)” value in test [4], in test [5] and in test [6] were 50, 12 and 10, respectively. Moreover, in test [7], the “cofilin-2/actin molar ratio at 50% dissociation of Tpm1.1 from F-actin” value was 0.75 cofilin-2/actin. For the same molecule, the “cofilin-2/actin molar ratio at 50% dissociation of Tpm3.12 from F-actin” value in test [7] was found to be 0.71 cofilin-2/actin.

In general, stoichiometry N refers to the number of molecules, sites or subunits per partner or assembly.
